Legend:
[1] = test system: MS2 coat protein; experiment: apparent KD of MS2 coat protein, switch OFF state (with FMN for OFF switches, without FMN for ON switches); designed switch direction (-1 OFF switch, 1 ON switch): -1; higher = weaker reporter binding; settings: FMN input: 0 or 200 uM; Eterna round: R93 (includes R88 designs)
Method in brief: (§1)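 Apparent KD per design is the median of normalised cluster binding-curve fits. Designed RNA switches transcribed on-chip from Illumina sequencing clusters were titrated with SNAP-549-labelled MS2 coat protein in twofold steps from 0.7 or 1.5 nM to 3 µM, with 0.8–1.5 h down to 10–20 min per step. Buffer: 100 mM Tris-HCl pH 7.5, 80 mM KCl, 4 mM MgCl2, without or with constant ligand.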

[2] = test system: MS2 coat protein; experiment: apparent KD of MS2 coat protein, switch ON state; designed switch direction (-1 OFF switch, 1 ON switch): -1; higher = weaker reporter binding; settings: FMN input: 0 or 200 uM; Eterna round: R93 (includes R88 designs)
Method in brief: as §1

Row | Sequence | apparent KD of MS2 coat protein [1] [nM] | apparent KD of MS2 coat protein [2] [nM]
1 | AAAAGCUAAGGAUAUACAUGAGGAUCACCCAUGUAGAACAGUGUAUGGGUAAAGGCGCGUAGAAGGUAGAAAAG [Arbileat] | 42.1 | 29.9
2 | AAAAUACAUGAGGAUCACCCAUGUGAGGAUAUCGUAAAGAAAGUGAUCAAAAGAAAUACGAGAAGGCACAUAAA [PK3] | 212 | 123
3 | AAAAUGGCAGGAUAUACUAAAAUAAAAAACUAUGCUAAAACACAUGAGGAUCACCCAUGUAGAAGGGCCAAAAA [AJ 5] | 18.8 | 26.2
4 | AAACCACAUGAGGAUCACCCAUGUGAGGAUAUGAACGAAAUAAAAUAAAAAUAAAAGUUCAGAAGGCACAAAAA [Mat - Exclusion 1 - Eli mod - D14] | 20.6 | 18.2
5 | AAAGGACAUGAGGAUCACCCAUGUGAGGAUAUGACGUAAAUAAAGAAAGAAGAAAUCGUCAGAAGGCACACCUA [55%, Disencluded 2, 2] | 45.1 | 40.7
6 | AAAGGACAUGAGGAUCACCCAUGUGAGGAUAUGCGAAAAAAAAAAAUAAAAAAAAAAAGUAGAAGGCACACCAA [Mat - Exclusion 1 - Eli mod - D57] | 128 | 99.4
7 | AAAGGACGAGGAUAUACAUGAGGAUCACCCAUGUAAAAAACGUAAGAAAAGAAGUUAUGUAGAAGGCGUCCAAA [69%, Moding Meechl, 14] | 20.6 | 15.5
8 | AAAGGACGAGGAUAUACAUGAGGAUCACCCAUGUAAAAAGCGUAGUAAAAGAACUUAUGUAGAAGGCGUCCAAA [Meechl Ex3 2 R2 v3] | 137 | 59.4
9 | AAAGGAUCAGGAUAUGUGUGGAAAAAGUGUGUCCAAAAAAAACAUGAGGAUCACCCAUGUAGAAGGGAUCCAAA [Mod 4 of Normal (20/19) by Nando, Round 1] | 260 | 222
10 | AAAGGGUCAGGAUAUGUACGAACAACAAAACAAAUAACGAUACAGAAGGGACAUGAGGAUCACCCAUGUAUAAA [May 74] | 70.6 | 55.8
11 | AAAGGGUCAGGAUAUGUACGAACAACAAAACAAAUAACGGUACAGAAGGGACAUGAGGAUCACCCAUGUAUAAA [May 73] | 64.1 | 51.9
12 | AAAGGUUGAGGAUAUGCGUGGAAAAAGUGUAUUCAAAAAAAACAUGAGGAUCACCCAUGUAGAAGGCGACCAAA [MS2 Riboswitches On Chip Exclusion 2 wbt3] | 163 | 61.9
13 | AAAUGCUGAGGAUAUACAUGAGGAUCACCCAUGUGAAAUAAAAAAUGUGUGUAAGCGUGUAGAAGGCAGCAUAA [Exclusion 3.12 (FMN+ favored)] | 25.8 | 57.1
14 | AAAUGUCUAGGAUAUACAUGAGGAUCACCCAUGUGUAAAAAUAAAUACACAAAAGAAAGUAGAAGGAGACAAAA [Ex 3 May 13] | 47.3 | 22.4
15 | AAAUUGUCAGGAUAUCGUAUAACAUGGAAAACAUGGAGAUACGAGAAGGGACAUGAGGAUCACCCAUGUAAAAC [May 95] | 87.4 | 51.6
16 | AACAAACAUGAGGAUCACCCAUGUAAGGAUAUGCAACAAAAACAAAAAACAAAAAAAAGCAGAAGGUACAACAA [Amethyst 99] | 28.8 | 25.6
17 | AACAAGACAGGAUAUACAUGAGGAUCACCCAUGUCACAAUAAAGUAGCGUAACACAAAGUAGAAGGGUCAUGGA [Ruby 8] | 50.4 | 41.5
18 | AACAGGACAGGAUAUACAUGAGGAUCACCCAUGUAGGAAACAAGCAGAGUACCAAAAAGUAGAAGGGUCAUGGA [Ruby 30] | 63.3 | 38.8
19 | AACAGGUCAGGAUAUGUGGAAAAAAUAAAAAAAAAUAAAACACAGAAGGGACAUGAGGAUCACCCAUGUAAAUA [Mat - Exclusion 4 - Mayanna - D142] | 59.2 | 68.7
20 | AACAGGUCAGGAUAUGUGUAAAAAAUAAAAAAAAUAUAAACACAGAAGGGACAUGAGGAUCACCCAUGUUAACA [May 26] | 35.7 | 31.5
21 | AACAGUACAGGAUAUACAUGAGGAUCACCCAUGUGAAAAGAAAGUGGCGUACCACAAAGUAGAAGGGUACUGAA [Mat - Exclusion 3 - JL mod - D29] | 135 | 25.3
22 | AACAGUACAGGAUAUACAUGAGGAUCACCCAUGUGAAAAUUAAGUGGAAAACCACAGUGUAGAAGGGUACUGGA [Mat - Exclusion 3 - Eli mod - D53] | 191 | 47.5
23 | AACAGUACAGGAUAUACAUGAGGAUCACCCAUGUGAAAAUUAAGUGGGAGACCACAAGGUAGAAGGGUACUGGA [Mat - Exclusion 3 - Eli mod - D65] | 57.7 | 176

Row | Sequence | apparent KD of MS2 coat protein [1] [nM] | apparent KD of MS2 coat protein [2] [nM]
24 | AACAGUACAGGAUAUACAUGAGGAUCACCCAUGUGAGAAUUAAGUGGCGUACCACAAAGUAGAAGGGUACUGAA [Mat - Exclusion 3 - JL mod - D6] | 97.3 | 30.8
25 | AACAGUACAGGAUAUACAUGAGGAUCACCCAUGUGAGAGAAAUAAAACAAAAAUAAAAGUAGAAGGGUACUGGA [Moding Maslow revisited (73) 22] | 43.3 | 41.7
26 | AACAUGUAAGGAUAUCAAAGAAAAGAAAAGAAAGAAAAGAAUGAGAAGGUACAUGAGGAUCACCCAUGUAAGAA [EteRNA is fun!] | 21.1 | 27.9
27 | AACAUGUAAGGAUAUGCUGCUCGUCACGAAAGUGAUGAGUAGCAGAAGGUACAUGAGGAUCACCCAUGUAAAGA | 156 | 49
28 | AACAUGUCAGGAUAUGUACGAAAAAAUAAAAAAAUAAAAGUACAGAAGGGACAUGAGGAUCACCCAUGUCAAAA [EX4 394: Minimal 7] | 47.4 | 33.4
29 | AACAUGUCAGGAUAUGUACGAAAAAAUAAAAAAAUAAAAGUACAGAAGGGACAUGAGGAUCACCCAUGUCAGGG [EX4 393: Minimal 6] | 20 | 100
30 | AACCAACAUGAGGAUCACCCAUGUCAGGAUAUGCGUACAACAUACAACAUACAUCAAAGCAGAAGGGACACAAA [Amethyst 84] | 23.6 | 20.2
31 | AACGAACAUGAGGAUCACCCAUGUCAGGAUAUGCAAAGAACGAUCGAACGAACGAUAAGCAGAAGGGACAGAGA [Amethyst 97] | 40.4 | 27.7
32 | AACUGACAUGAGGAUCACCCAUGUCAGGAUAUGACAUCGAGAAAAAAAAAAAUCGUUGUCAGAAGGGACAUGAA [Design 78: Sub-opt T] | 13.6 | 12.4
33 | AAGAAACAUGAGGAUCACCCAUGUAAGGAUAUCUAAAAGAAAAGAAAAGAAAGAAGAAGGAGAAGGUACAAAGG [Sehertawy Intef I] | 30 | 26.1
34 | AAGAAACAUGAGGAUCACCCAUGUGAGGAUAUCGAAGAAAGAAAGAAAGAAAGAAGAACGAGAAGGCACAAAGG [Publius Octavius] | 59.3 | 42.7
35 | AAGAAACAUGAGGAUCACCCAUGUGAGGAUAUUGAAAAGAAAAGAAAAGAAAGAAGAACAAGAAGGCACAAAGG [Merenhor] | 37.8 | 39.4
36 | AAGAAAGCAGGAUAUACAAAAUAAAAGAAAAGAAAGAAAGAACAUGAGGAUCACCCAUGUAGAAGGGCUAAGAA [Khahotepre Sobekhotep VI] | 32.3 | 38
37 | AAGAAAGCAGGAUAUACAUGAGGAUCACCCAUGUAAAAGAAAGAAGGGAAAGAGAAAAGUAGAAGGGCUAAGAA [Wehemibre Necho II] | 38.7 | 20.9
38 | AAGAACACAGGAUAUACAUGAGGAUCACCCAUGUAAAAGAAAGAGGGAAAAGAGAAAAGUAGAAGGGUGAAGAA [Hugronaphor] | 31.4 | 33.1
39 | AAGAACGCAGGAUAUACAUGAGGAUCACCCAUGUAAAAGAAAGAAAAGGGAAAGAAAAGUAGAAGGGCGAAGAA [Aakheperkare Thutmose I] | 33.1 | 33.9
40 | AAGAACGCAGGAUAUACUAAAGAAAUGAAAAGAAAUAAAGAACAUGAGGAUCACCCAUGUAGAAGGGCGAAGAA [Merdjefare] | 32.1 | 39.4
41 | AAGAACGUAGGAUAUACAUGAAAGAAAGAAAAGAAAAGAAAACAUGAGGAUCACCCAUGUAGAAGGACGUAGAA [EteRNA is fun!] | 22.1 | 20
42 | AAGAAGAGAGGAUAUACAUGAGGAUCACCCAUGUAAAAGAAAGAGGGAAAAGAGAAAAGUAGAAGGCUCAAGAA [Arsinoe II] | 37 | 23.9
43 | AAGAAGCAAGGAUAUACAUGAGGAUCACCCAUGUAAAAGAAAGAAGGGAAAGAGAAAAGUAGAAGGUGCAAGAA [Shepsesre Tefnakhte] | 30.1 | 25.7
44 | AAGAAGCUAGGAUAUACAUGAGGAUCACCCAUGUAAAAGAAAGAAAAGGGAAAGAAAAGUAGAAGGAGCAAGAA [Menpehtire Ramesses I] | 35.6 | 28.7
45 | AAGAAGGAAGGAUAUACAUGAGGAUCACCCAUGUAAAAGAAAGAAAAGGGAAAGAAAAGUAGAAGGUCCAAGAA [Djeserkheperure-setpenre Horemheb] | 41.6 | 30.4

Reference: the supplement of paper PMC9170038
